According to paper PMC4980113:

Key:
[1] = molecular target: Dip (gp37, degradosome interacting protein) of giant phage φKZ, His-tagged (Pseudomonas phage φKZ); test: AUC; analytical ultracentrifugation of Dip in solution; data not shown
[2] = molecular target: Dip (gp37, degradosome interacting protein) of giant phage φKZ, His-tagged (Pseudomonas phage φKZ); test: ELISA; 350 nM Dip (C-terminal his-tag) held on Ni-NTA HisSorb strips, increasing amounts of RNA degradosome, detected by anti-Strep-tag II-HRP

Row | Substance | stoichiometry N [1] | Dip protomers per degradosome protomer at saturation of the signal (Dip protomers per degradosome protomer) [2]
1 | Dip (gp37, degradosome interacting protein) of giant phage φKZ, His-tagged (natural protein) | 2 | –
2 | RNA degradosome of P. aeruginosa, purified (C-terminal Strep-tag II on RNase E) (from UniProt Q9HZM8 1-1057) (complex) | – | 10
